Here are results for 72 substances from patent US20220289816A1, “IMMUNOTHERAPY WITH B*07 RESTRICTED PEPTIDES AND COMBINATION OF PEPTIDES AGAINST CANCERS AND RELATED METHODS” (Immatics Biotechnologies GmbH, priority 2018, published 2022).

In this experiment the target is HLA-B*07 (Homo sapiens, UniProt P01889). Put plainly: MHC binding assay (UV-ligand exchange, ELISA of stabilized MHC complexes). Conditions: peptide exchange yield on HLA-B*07, UV-ligand exchange. An outline of the steps: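 Peptide–MHC complexes were made by UV-ligand exchange, in which a UV-cleavable peptide is replaced by the test peptide. Exchange yield was measured by ELISA of stabilized complexes on streptavidin-coated plates, using HRP anti-β2m detection (1 h, 37 °C), TMB substrate and absorbance at 450 nm.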
(ELISA stands for enzyme-linked immunosorbent assay.)
Take “313 (VPLSSYVSI; listed as Homo sapiens) [compound 313]”: the Peptide exchange result was “++++ (>75% = ++++)”.
Under “314 (IALMKLAGPL; listed as Homo sapiens) [compound 314]” stands “++ (>20% = ++)”.
The result for “315 (APVVFPAL; listed as Homo sapiens) [compound 315]” reads “++++ (>75% = ++++)”; that for “316 (NPREPEKSL; listed as Homo sapiens) [compound 316]”, “+++ (>50 = +++)”.
Turning to “317 (MPYNSAHHCVV; listed as Homo sapiens) [compound 317]”, the Peptide exchange result is recorded as “++++ (>75% = ++++)”.
Under “318 (TPISNTGVL; listed as Homo sapiens) [compound 318]” stands “++++ (>75% = ++++)”.
The result for “319 (RPLDTFRVL; listed as Homo sapiens) [compound 319]” reads “++++ (>75% = ++++)”.
Under “320 (APMHIDRNIL; listed as Homo sapiens) [compound 320]” stands “++++ (>75% = ++++)”; under “321 (QPQQPGFFL; listed as Homo sapiens) [compound 321]”, “+++ (>50 = +++)”; under “322 (RAVPVGSGL; listed as Homo sapiens) [compound 322]”, “+++ (>50 = +++)”.
Turning to “323 (TPHGITDIL; listed as Homo sapiens) [compound 323]”, the Peptide exchange entry is “++++ (>75% = ++++)”.
Under “324 (LPAPLRISL; listed as Homo sapiens) [compound 324]” stands “++++ (>75% = ++++)”; under “325 (SPRSNPVRL; listed as Homo sapiens) [compound 325]”, “++++ (>75% = ++++)”.
Under “327 (GPRTTQSSVL; listed as Homo sapiens) [compound 327]” stands “++++ (>75% = ++++)”; under “328 (LPLHRGDLVI; listed as Homo sapiens) [compound 328]”, “+++ (>50 = +++)”.
In the case of “329 (QPANFIVLL; listed as Homo sapiens) [compound 329]”, the Peptide exchange result is recorded as “+++ (>50 = +++)”.
The result for “330 (RPFSAIAEL; listed as Homo sapiens) [compound 330]” reads “++++ (>75% = ++++)”.
Under “331 (SPDSAILKL; listed as Homo sapiens) [compound 331]” stands “+++ (>50 = +++)”.
The result for “332 (SPYAGSTAF; listed as Homo sapiens) [compound 332]” reads “++++ (>75% = ++++)”; that for “333 (SVLPRALSL; listed as Homo sapiens) [compound 333]”, “+++ (>50 = +++)”; that for “334 (YPLSLALHF; listed as Homo sapiens) [compound 334]”, “++++ (>75% = ++++)”.
As to “335 (VPPQNPRPSL; listed as Homo sapiens) [compound 335]”, the Peptide exchange entry is recorded as “+++ (>50 = +++)”.
On to “336 (YPLQGPGLLSV; listed as Homo sapiens) [compound 336]”, for which the Peptide exchange result was “+++ (>50 = +++)”.
The result for “337 (IPTSRVITL; listed as Homo sapiens) [compound 337]” reads “++++ (>75% = ++++)”.
Under “338 (MPATPSLKV; listed as Homo sapiens) [compound 338]” stands “+++ (>50 = +++)”.
The result for “339 (GPQRTTSV; listed as Homo sapiens) [compound 339]” reads “+++ (>50 = +++)”; that for “340 (APEPRAALL; listed as Homo sapiens) [compound 340]”, “+++ (>50 = +++)”; that for “341 (LPRSPPLKVL; listed as Homo sapiens) [compound 341]”, “++++ (>75% = ++++)”.
As to “342 (RPRPPKVL; listed as Homo sapiens) [compound 342]”, the Peptide exchange entry is given as “+++ (>50 = +++)”.
Under “343 (RPRPPKVLGL; listed as Homo sapiens) [compound 343]” stands “+++ (>50 = +++)”; under “344 (VPYPSPTCV; listed as Homo sapiens) [compound 344]”, “++++ (>75% = ++++)”.
Under “345 (SAAPPGASL; listed as Homo sapiens) [compound 345]” stands “+++ (>50 = +++)”; under “346 (IPMPRITWL; listed as Homo sapiens) [compound 346]”, “++++ (>75% = ++++)”; under “347 (SPLEKINSF; listed as Homo sapiens) [compound 347]”, “++++ (>75% = ++++)”.
Turning to “348 (HPAPPVTSA; listed as Homo sapiens) [compound 348]”, the Peptide exchange result is reported as “+++ (>50 = +++)”.
The result for “349 (QPRDGWPMML; listed as Homo sapiens) [compound 349]” reads “++++ (>75% = ++++)”.
The result for “350 (RPKSTLMNF; listed as Homo sapiens) [compound 350]” reads “++++ (>75% = ++++)”; that for “351 (SPYADIIPSA; listed as Homo sapiens) [compound 351]”, “+++ (>50 = +++)”.
The result for “352 (LPAFSKIGGIL; listed as Homo sapiens) [compound 352]” reads “++++ (>75% = ++++)”; that for “353 (KPRATWTL; listed as Homo sapiens) [compound 353]”, “+++ (>50 = +++)”.
With “354 (APAKDARASL; listed as Homo sapiens) [compound 354]”, the Peptide exchange entry is reported as “++++ (>75% = ++++)”.
In the case of “355 (APKTSFIAA; listed as Homo sapiens) [compound 355]”, the Peptide exchange result was “++++ (>75% = ++++)”.
Under “356 (RPFLRLPSL; listed as Homo sapiens) [compound 356]” stands “+++ (>50 = +++)”; under “357 (LPPHIFAI; listed as Homo sapiens) [compound 357]”, “++ (>20% = ++)”; under “358 (APSMLRKNQL; listed as Homo sapiens) [compound 358]”, “+++ (>50 = +++)”.
Under “359 (SPRRLVELAGQSL; listed as Homo sapiens) [compound 359]” stands “++++ (>75% = ++++)”.
Under “360 (SPASRSISLL; listed as Homo sapiens) [compound 360]” stands “++++ (>75% = ++++)”.
For the substance “362 (KPMLPPAAF; listed as Homo sapiens) [compound 362]”, the Peptide exchange entry is “+++ (>50 = +++)”.
The result for “363 (KPRTPFTTA; listed as Homo sapiens) [compound 363]” reads “++++ (>75% = ++++)”; that for “367 (APQVHIFSL; listed as Homo sapiens) [compound 367]”, “++++ (>75% = ++++)”.
Under “368 (NPASRLTAL; listed as Homo sapiens) [compound 368]” stands “++++ (>75% = ++++)”.
Under “369 (RPYGCVLRAA; listed as Homo sapiens) [compound 369]” stands “++++ (>75% = ++++)”; under “370 (AAHEFGHVL; listed as Homo sapiens) [compound 370]”, “++ (>20% = ++)”.
Turning to “371 (APRSPGQVTPRGL; listed as Homo sapiens) [compound 371]”, the Peptide exchange result is given as “+++ (>50 = +++)”.
As to “372 (SPSSASLTL; listed as Homo sapiens) [compound 372]”, the Peptide exchange result is reported as “++++ (>75% = ++++)”.
The result for “373 (LPKPDLPQLI; listed as Homo sapiens) [compound 373]” reads “+ (>10% = +)”.
The result for “374 (KPRNMTGLDL; listed as Homo sapiens) [compound 374]” reads “++++ (>75% = ++++)”; that for “375 (LPRGVLEGL; listed as Homo sapiens) [compound 375]”, “++++ (>75% = ++++)”.
Under “376 (FPQVGRTAL; listed as Homo sapiens) [compound 376]” stands “++++ (>75% = ++++)”; under “377 (SPFSKRIKL; listed as Homo sapiens) [compound 377]”, “+++ (>50 = +++)”; under “378 (SPRQPRLDF; listed as Homo sapiens) [compound 378]”, “++++ (>75% = ++++)”.
In the case of “379 (GPRQVLFPL; listed as Homo sapiens) [compound 379]”, the Peptide exchange result is on record as “++++ (>75% = ++++)”.
Under “380 (SPYPGSAAF; listed as Homo sapiens) [compound 380]” stands “++++ (>75% = ++++)”; under “381 (APRPRLLLL; listed as Homo sapiens) [compound 381]”, “+++ (>50 = +++)”; under “382 (RPGPQRTTSV; listed as Homo sapiens) [compound 382]”, “++++ (>75% = ++++)”.
The result for “383 (KPRATWTLKL; listed as Homo sapiens) [compound 383]” reads “+++ (>50 = +++)”; that for “448 (TVYGEPRKL; listed as Homo sapiens) [compound 448]”, “++ (>20% = ++)”.
For “449 (RPKTSVNLISSL; listed as Homo sapiens) [compound 449]”, the Peptide exchange result was “++++ (>75% = ++++)”.
The result for “450 (SAAARALLP; listed as Homo sapiens) [compound 450]” reads “+ (>10% = +)”.
Turning to “451 (VPILPLNHAL; listed as Homo sapiens) [compound 451]”, the Peptide exchange result was “++++ (>75% = ++++)”.
Under “452 (QPVKKNTL; listed as Homo sapiens) [compound 452]” stands “++++ (>75% = ++++)”; under “453 (APALPGQVTI; listed as Homo sapiens) [compound 453]”, “++++ (>75% = ++++)”.
